# Experiments:
# Test in all cases: flow cytometry, CHO-S cells expressing the target
# [1] = target: Macaca fascicularis (crab-eating macaque) SIGLEC15 on CHO-S-fasSIGLEC15 cells (Macaca fascicularis (crab-eating macaque))
# [2] = target: mouse SIGLEC15 on CHO-S-mSIGLEC15 cells (mouse)
# [3] = target: human SIGLEC15 on CHO-S-hSIGLEC15 cells (human) (UniProt Q6ZMC9)
# [4] = target: dog SIGLEC15 on CHO-S-dSIGLEC15 cells (dog)
# Sequence of dog SIGLEC15 on CHO-S-dSIGLEC15 cells (dog) (chain, as listed by the source limits assumed): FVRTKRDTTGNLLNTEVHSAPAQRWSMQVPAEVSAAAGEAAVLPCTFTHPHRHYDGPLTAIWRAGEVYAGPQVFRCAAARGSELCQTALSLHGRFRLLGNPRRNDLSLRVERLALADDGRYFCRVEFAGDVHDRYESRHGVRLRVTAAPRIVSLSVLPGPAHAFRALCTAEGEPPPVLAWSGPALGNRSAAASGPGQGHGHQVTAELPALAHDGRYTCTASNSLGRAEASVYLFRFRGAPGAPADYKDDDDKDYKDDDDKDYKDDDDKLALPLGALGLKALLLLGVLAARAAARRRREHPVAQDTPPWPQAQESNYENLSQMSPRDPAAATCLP
# Sequence of human SIGLEC15 on CHO-S-hSIGLEC15 cells (human) (Q6ZMC9 20-328 limits assumed): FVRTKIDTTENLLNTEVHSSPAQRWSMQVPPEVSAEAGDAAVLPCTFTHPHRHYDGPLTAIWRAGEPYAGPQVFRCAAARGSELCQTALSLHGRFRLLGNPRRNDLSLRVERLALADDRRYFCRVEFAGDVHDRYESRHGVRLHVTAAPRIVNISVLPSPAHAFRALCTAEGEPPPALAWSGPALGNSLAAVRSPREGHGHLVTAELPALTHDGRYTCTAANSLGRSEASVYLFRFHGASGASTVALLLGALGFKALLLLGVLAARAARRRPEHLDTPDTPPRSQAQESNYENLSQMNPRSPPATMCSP
# Sequence of mouse SIGLEC15 on CHO-S-mSIGLEC15 cells (mouse) (chain, as listed by the source limits assumed): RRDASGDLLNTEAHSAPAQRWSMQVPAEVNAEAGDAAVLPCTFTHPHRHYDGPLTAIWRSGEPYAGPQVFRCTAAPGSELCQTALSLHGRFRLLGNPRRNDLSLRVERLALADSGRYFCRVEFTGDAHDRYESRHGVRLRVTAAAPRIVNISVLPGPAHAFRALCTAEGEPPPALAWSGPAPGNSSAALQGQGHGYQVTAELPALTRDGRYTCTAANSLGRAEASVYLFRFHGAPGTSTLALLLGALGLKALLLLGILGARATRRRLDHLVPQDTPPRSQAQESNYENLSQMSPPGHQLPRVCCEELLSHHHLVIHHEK
Substance,Percentage of Positive Cells [1],Percentage of Positive Cells [2],Percentage of Positive Cells [3],Percentage of Positive Cells [4]
NC + secondary antibody,0%,0.3%,0%,0.7%
NC,0.2%,0.1%,0.1%,0.6%
